Experimental data taken from publication PMC3084791, “The Structure of Helicobacter pylori HP0310 Reveals an Atypical Peptidoglycan Deacetylase” (PLoS ONE, 2011).

Target: the molecule itself
Experiment: crystal structure; crystals at 20°C by vapor diffusion, 0.2 M ammonium sulfate, 0.1 M trisodium citrate pH 5.6, 15% PEG 4000; space group C2221; one tetramer in the asymmetric unit; 2.57 Å

B1: Peptidoglycan deacetylase (HP0310, HpPgdA) from Helicobacter pylori (enzyme)
chain: MAKEILVAYGVDIDAVAGWLGSYGGEDSPDDISRGLFAGEVGIPRLLKLFKKYHLPATWFVPGHSIETFPEQMKMIVDAGHEVGAHGYSHENPIAMSTKQEEDVLLKSVELIKDLTGKAPTGYVAPWWEFSNITNELLLKHGFKYDHSLMHNDFTPYYVRVGDSWSKIDYSLEAKDWMKPLIRGVETNLVEIPANWYLDDLPPMMFIKKSPNSFGFVSPRDIGQMWIDQFDWVYREMDYAVFSMTIHPDVSARPQVLLMHEKIIEHINKHEGVRWVTFNEIADDFLKRNPRKK
notes: HP0310 (HpPgdA), peptidoglycan deacetylase, amplified from genomic H. pylori G27 with primers from the ATG to the stop codon; soluble protein of 293 amino acids; residues 2 to 291 visible in the crystal; Cloned in pET151 in frame with an N-terminal His-tag flanked by a TEV site; the entry of strain 26695 would be another; also called His tagged-Hp0310; H. pylori peptidoglycan deacetylase; source: …
stoichiometry N: 4
